Assay results taken from publication PMC3530171 (Cell, 2012).

Target: recombinant His-Mdm2 (UniProt P23804 1-489)
Assay: pull-down

Sequence of recombinant His-Mdm2 (P23804 whole entry): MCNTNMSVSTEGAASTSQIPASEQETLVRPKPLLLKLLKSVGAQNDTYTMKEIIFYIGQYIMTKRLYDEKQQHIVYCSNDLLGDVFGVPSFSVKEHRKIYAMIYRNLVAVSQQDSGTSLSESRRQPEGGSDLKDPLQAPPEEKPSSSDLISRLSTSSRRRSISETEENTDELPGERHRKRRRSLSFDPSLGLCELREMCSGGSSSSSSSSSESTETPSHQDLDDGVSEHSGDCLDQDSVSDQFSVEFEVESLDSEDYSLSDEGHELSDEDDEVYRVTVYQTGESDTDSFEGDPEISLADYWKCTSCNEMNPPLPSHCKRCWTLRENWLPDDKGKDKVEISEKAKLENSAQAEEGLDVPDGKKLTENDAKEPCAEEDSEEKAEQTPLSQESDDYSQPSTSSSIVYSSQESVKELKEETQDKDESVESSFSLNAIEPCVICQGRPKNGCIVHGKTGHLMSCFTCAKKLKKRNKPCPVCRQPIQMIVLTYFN

B1: recombinant GST-EF1α (natural protein)
chain: GKEKTHINIVVIGHVDSGKSTTTGHLIYKCGGIDKRTIEKFEKEAAEMGKGSFKYAWVLDKLKAERERGITIDISLWKFETSKYYVTIIDAPGHRDFIKNMITGTSQADCAVLIVAAGVGEFEAGISKNGQTREHALLAYTLGVKQLIVGVNKMDSTEPPYSQKRYEEIVKEVSTYIKKIGYNPDTVAFVPISGWNGDNMLEPSANMPWFKGWKVTRKDGNASGTTLLEALDCILPPTRPTDKPLRLPLQDVYKIGGIGTVPVGRVETGVLKPGMVVTFAPVNVTTEVKSVEMHHEALSEALPGDNVGFNVKNVSVKDVRRGNVAGDSKNDPPMEAAGFTAQVIILNHPGQISAGYAPVLDCHTAHIACKFAELKEKIDRRSGKKLEDGPKFLKSGDAAIVDMVPGKPMCVESFSDYPPLGRFAVRDMRQTVAVGVIKAVDKKAAGAGKVTKSAQKAQKAK
stoichiometry N: ~1
